Source: IntAct's records for PubMed 12093730

B1: Guanine nucleotide exchange factor SopE (Salmonella typhimurium), O52623 (parent)
chain: MTKITLSPQNFRIQKQETTLLKEKSTEKNSLAKSILAVKNHFIELRSKLSERFISHKNTESSATHFHRGSASEGRAVLTNKVVKDFMLQTLNDIDIRGSASKDPAYASQTREAILSAVYSKNKDQCCNLLISKGINIAPFLQEIGEAAKNAGLPGTTKNDVFTPSGAGANPFITPLISSANSKYPRMFINQHQQASFKIYAEKIIMTEVAPLFNECAMPTPQQFQLILENIANKYIQNTP

Variants of: B1
Details: with cdc42_human CDC42, P60953
Chain of cdc42_human CDC42, P60953 (P60953 whole entry, looked up): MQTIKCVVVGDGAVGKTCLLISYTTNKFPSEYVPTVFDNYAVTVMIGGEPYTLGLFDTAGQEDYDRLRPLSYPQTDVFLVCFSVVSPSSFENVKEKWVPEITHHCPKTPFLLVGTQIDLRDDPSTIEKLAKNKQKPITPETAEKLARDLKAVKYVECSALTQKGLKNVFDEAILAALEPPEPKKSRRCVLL

Variant	effect of a mutation on the interaction
G168A	decreasing interaction
